The values below come from patent US20200022997A1, “ORAL ANTICANCER PRODRUGS, THEIR PREPARATION METHODS AND APPLICATIONS” (Seoul National university R&DB Foundation, priority 2018, published 2020).

The test system of one data set is MDA-MB-436 xenograft. The data set is described as follows: MDA-MB-436 xenograft, daily oral dosing with or without olaparib. Type of data set: in vivo, female NSG SCID mouse. Particulars: monotherapy, 50 mg/kg intraperitoneal, 5 days on/2 days off for two weeks. Here is the method: Human breast cancer MDA-MB-436 cells were transplanted into a female NSG SCID mouse, and when the cancer tumor size reached 100-150 mm^3, 3 mg/kg of DEVD-S-DCX/DCK (based on the docetaxel content), was orally administered daily. 50 mg/kg of olaparib was administered by intraperitoneal injection daily for the first five days of every week for two weeks (5 days on/2 days off). In addition, a test group without olaparib was daily orally administered 3 mg/kg DEVD-S-DCX/DCK (based on the docetaxel content).

A short description of the next data set: in vivo. The following applies: Sprague Dawley, rat.
The conditions of data set [1]: rat, in vivo; for Cmax: Sprague Dawley.
Procedure: (§1) Quantitative analysis was performed by measuring the fluorescence intensity in plasma, and using a standard curve to determine concentration (FIG. 9).
The test system of data set [2] is MDA-MB-231 human breast cancer cell line. The data set is described as follows: MTT cytotoxicity assay combined with radiation (4 Gy) and/or caspase inhibitor Z-VAD-FMK. Type of data set: cell-based. The following applies: by itself, without radiation. The procedure: The degree of cytotoxicity of DEVD-S-DOX was assessed using an in vitro MTT assay and combined radiation therapy in the MDA-MB-231 human breast cancer cell line. The MDA-MB-231 cell line was irradiated with radiation and the expression of caspase-3 was evaluated. Western blot (FIG. 6A) and a cellular caspase-3 activity assay (FIG. 6B) confirmed that the expression of caspase-3 increased over time.
Next, the cancer cells were cultured in a 96-well microplate at the density of 5×10^4 cell/well in DMEM (10% FBS) medium for 24 hours, and then treated with DEVD-S-DOX or 5 μM Doxorubicin. Some of the test groups were also treated with Z-VAD-FMK, which is a caspase inhibitor. Then cells were irradiated with 4 Gy of radiation, and after 24 and 48 hours, cell viability was assessed against the controls using an MTT assay (FIG. 7). […] This confirmed that caspase-3 was expressed via radiation therapy in the cancer cells, which then activated DEVD-S-DOX and led to a synergistic cytotoxic effect.
Background: Tetrazolium dyes change colour on reduction, which living cells bring about.

Data set [3] is described as follows: Toxicity evaluation: hematological and biochemical parameters and histology after one month of administration. Particulars: 2.5 mg/kg.
For data set [4], the system named is human breast cancer cells MDA-MB-231. The data set is described as follows: MTT cytotoxicity assay with or without human recombinant caspase-3. Particulars: read-out: IC50 cytotoxicity (MTT); pretreated with caspase-3 (500 ng/mL), 48 hours.
Procedure: The cytotoxicity of DEVD-S-DOX in human breast cancer cells MDA-MB-231 was assessed using MTT assay with or without the treatment with human recombinant caspase-3. After the cancer cells were placed on a 96-well microplate at the concentration of 5×10^4 cell/well and cultured in DMEM (10% FBS) media for 24 hours, doxorubicin, DEVD-S-DOX, and DEVD-S-DOX, pre-treated with caspase-3 (500 ng/mL), were added at concentrations ranging from 0.01-100 μM, and further cultured for 48 hours. After that, 10 μL of MTT agent were added to each well and cultured for 2 hours at 37° C. until a blue precipitate forms. At this point, 100 μL of detergent agent was added and cultured for 4 hours at room temperature. Optical density was measured in each well at 570 nm to determine cell viability.

One may read the AUC(0-inf) as the area under the concentration-time curve extrapolated to infinity. In general, AUC(0-t) refers to the area under the concentration-time curve up to a stated or last time point. A lower AUC(0-t) goes with less exposure. For orientation: MRT means the average time that molecules of a dose stay in the body. Broadly, the Tmax is the time at which the peak concentration occurs. A word on the bioavailability: it is dose-corrected exposure relative to a reference, in per cent. Higher therefore signals much systemic uptake. By Cmax is commonly meant the peak of the concentration-time curve. As usually defined, the IC50 is the point on the concentration scale where inhibition reaches its midpoint.

Read-outs that look alike come from different tables or passages of the source. *1 amine or outer side, *2 acyl side, *3 side chain or, on linkers, in order; H or OH if unused. Where a SMILES comes first, the peptide text is derived from it. [ ]: non-standard residue; d: D form. The star is where a group is joined. Doxorubicin(3'-N) = COc1cccc2c1C(=O)c1c(O)c3c(c(O)c1C2=O)C[C@@](O)(C(=O)CO)C[C@@H]3O[C@H]1C[C@H](N*)[C@H](O)[C@H](C)O1; PABC = O=C(OCc1ccc(N[*:1])cc1)[*:2]

Procedure for in vivo: as §1

`O=C(c1cc(Cc2n[nH]c(=O)c3ccccc23)ccc1F)N1CCN(C(=O)C2CC2)CC1` [olaparib]: the tumor growth suppression result with MDA-MB-436 xenograft was “ineffective”.

On to `COc1cccc2c1C(=O)c1c(O)c3c(c(O)c1C2=O)C[C@@](O)(C(=O)CO)C[C@@H]3O[C@H]1C[C@H](NC(=O)OCc2ccc(NC(=O)[C@H](CC(=O)O)NC(=O)[C@@H](NC(=O)[C@H](CCC(=O)O)NC(=O)[C@H](CC(=O)O)NC(=O)CNC(=O)[C@H](CCCCN)NC(C)=O)C(C)C)cc2)[C@H](O)[C@H](C)O1` [DEVD-S-DOX, Ac-KGDEVD-PABC-Doxorubicin] (Ac-KGDEVD[PABC]-{Doxorubicin(3'-N)}), for which, in the data set “in vivo” (iv, 1 mg/kg), the AUC(0-inf) stood at 3370 ± 250 ng·h/mL, the AUC(0-t) came to 3110 ± 290 ng·h/mL and the MRT was 2.01 ± 0.28 h. In the data set “in vivo” (po, 10 mg/kg), the AUC(0-inf) is 130 ± 60 ng·h/mL, the AUC(0-t) came to 100 ± 50 ng·h/mL, the MRT stood at 1.18 ± 0.03 h and the Tmax turned out to be 1 h. The bioavailability in the data set “in vivo” (po, 10 mg/kg) came to 0.45 ± 0.22%. In data set [1] (iv, 1 mg/kg), this compound returned a maximum concentration (Cmax) of 3370 ± 310 ng/mL. Besides, in data set [1] (po, 10 mg/kg), the Cmax is 72 ± 33 ng/mL and the “BA (bioavailability)” value is “negligible bioavailability”. For the same compound, the “cytotoxicity (MTT)” value in data set [2] is listed as “did not show any noticeable cytotoxicity”. This compound returned a BASO in data set [3] of 1.0 ± 0.5%. Besides, the MONO in data set [3] (normal range 1.0-5.0) was determined as 6.8 ± 1.7%. The WBC in data set [3] (normal range 4.0-15.0) is recorded as 12.8 ± 5.4 m/mm^3. Also, the RBC in data set [3] (normal range 6.0-11.0) is given as 7.1 ± 1.4 M/mm^3. The Segment in data set [3] (normal range 10.0-30.0) is 18.2 ± 0.7%. Also, in data set [3] (normal range 13.0-22.0), the MCH came to 16.4 ± 1.8 pg. In data set [3] (normal range 14.0-18.0), this compound had a Hb of 11.4 ± 1.3 g/dL. For the same compound, the MCHC in data set [3] (normal range 24.0-40.0) is recorded as 33.4 ± 3.8 g/dL. In addition, the Hct in data set [3] (normal range 35.0-45.0) is 35.1 ± 7.2%. In data set [3] (normal range 35.0-50.0), this compound came in with an MCV of 49.2 ± 7.2 fL. The same compound displayed a Lympho in data set [3] (normal range 70.0-81.0) of 71.0 ± 4.9%. This compound came in with a Platelet in data set [3] (normal range 600-1000) of 1008 ± 392 m/mm^3. In data set [3] (normal range <10.0), this compound displayed an EOS of 2.8 ± 1.4%. In addition, the IC50 in data set [4] was 1780 nM.
